Laboratory results taken from paper PMC11077089, “Molecular basis of A. thaliana KEOPS complex in biosynthesizing tRNA t6A”.

T1: KAE1;BUD32;CGI121;PCC1 (Arabidopsis thaliana;Arabidopsis …, UniProt O49653;Q94K14;Q6NMZ4;Q8GWD7 1-353;1-226;1-172;1-96, |||)
T1 sequence 1: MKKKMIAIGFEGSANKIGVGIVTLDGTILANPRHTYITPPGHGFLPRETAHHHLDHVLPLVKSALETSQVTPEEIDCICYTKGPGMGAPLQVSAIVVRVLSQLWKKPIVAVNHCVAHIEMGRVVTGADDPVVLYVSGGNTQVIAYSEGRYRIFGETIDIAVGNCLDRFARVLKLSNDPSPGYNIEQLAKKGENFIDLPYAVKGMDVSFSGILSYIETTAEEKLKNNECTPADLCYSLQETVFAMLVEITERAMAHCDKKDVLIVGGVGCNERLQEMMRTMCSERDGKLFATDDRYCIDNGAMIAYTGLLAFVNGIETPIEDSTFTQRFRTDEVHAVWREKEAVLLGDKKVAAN
T1 sequence 2: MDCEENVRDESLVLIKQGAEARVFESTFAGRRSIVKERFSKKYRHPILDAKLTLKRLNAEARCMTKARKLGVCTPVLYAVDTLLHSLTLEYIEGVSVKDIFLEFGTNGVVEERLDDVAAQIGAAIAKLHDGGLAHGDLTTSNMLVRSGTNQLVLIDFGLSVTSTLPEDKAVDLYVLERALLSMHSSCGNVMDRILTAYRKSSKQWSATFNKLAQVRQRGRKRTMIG
T1 sequence 3: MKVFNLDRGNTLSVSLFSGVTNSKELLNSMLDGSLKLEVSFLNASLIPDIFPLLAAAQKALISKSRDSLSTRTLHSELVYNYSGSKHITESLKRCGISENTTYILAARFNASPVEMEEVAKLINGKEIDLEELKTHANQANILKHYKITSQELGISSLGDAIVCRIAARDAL
T1 sequence 4: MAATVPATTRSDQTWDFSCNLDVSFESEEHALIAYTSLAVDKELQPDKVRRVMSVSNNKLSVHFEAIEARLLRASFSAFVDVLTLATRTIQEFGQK

B1: tRNAIleUAU (structured_RNA)
RNA: GCUCCCGUAGCUCAGUUGGUUAGAGCGUUGGUCUUAUGAGCCGAAGGUCGCGGGUUCGAGCCCCGCCGGAAGCACCA
B2: tRNAThrCGU (structured_RNA)
RNA: GCCUCCGUAGCAUAGUGGUAUUGCGUUCGCUUCGUAAGCGAAAGGUCGUGAGUUCGAUCCUCACCGUAGGCUCCA
B3: tRNAArgUCU (structured_RNA)
RNA: GCGCCCGUGGCCUAAUGGAUAAGGCGUUUGACUUCUAAUCAAACGAUUGUGGGUUCGAGUCCCACCGGGCGUGCCA
B4: tRNALysUUU (structured_RNA)
RNA: GCCGUCUUAGCUCAGCGGUAGAGCGCGUGGCUUUUAACCACGUGGCCGUGGGUUCGAUCCCCACAGACGGCGCCA
B5: tRNAAsnGUU (structured_RNA)
RNA: GCUGGAAUAGCUCAGUAGGUUUAGAGCGUGUGGCUGUUAACCUCAAGGUCGGAGGUUCGACCCCUCCUUUCAGCGCCA
B6: tRNAIleAAU (structured_RNA)
RNA: GGCCUAUUAGCUCAGUUGGUUAGAGCGUCGUGCUAAUAACGCGAAGGUCACAGGUUCGAUCCCUGUAUAGGCCACCA
B7: tRNASerGCU (structured_RNA)
RNA: GUCGCUUUGGCCGAGUGGUUAAGGCGUGUUCCUGCUAAGUACAUGGGGUUUCCCCGCGAGAGUUCGAAUCUGUCAGGCGACGCCA

target: T1, KAE1;BUD32;CGI121;PCC1; assay: EMSA; 20 uM each; MST: 20 mM PBS pH 7.5, 300 mM NaCl, 0.05% Tween 20, 25 C, 50 nM RNA; EMSA: 20 mM Tris-HCl pH 7.5, 300 mM NaCl, 5 mM b-mercaptoethanol, 20% glycerol, agarose gel in Tris-glycine pH 8.0 (8.5 for FAM-RNA), 4 C; conditions: protein: recombinant;recombinant;recombinant;recombinant; tags: none (6His on partner PCC1);none (6His on partner CGI121);6His (C-term);6His (C-term); chain copies: 2;2;2;2; tRNA cloverleaf

Binding result, binds:
B1
B2
B3
B4
B5
B6
B7
